In paper PMC2680354:

Tests used:
[1] = target: rapamycin-mediated complex of FKBP-WASP VCA-His6 and mTOR-WASP VCA-FLAG; assay: pull-down
[2] = target: N-WASPC (autoinhibited C-terminal fragment of N-WASP) (UniProt O08816); assay: ITC
[3] = target: N-WASPC (autoinhibited C-terminal fragment of N-WASP) (UniProt O08816)
[4] = target: glutathione S-transferase (GST)

Sequence of N-WASPC (autoinhibited C-terminal fragment of N-WASP) (O08816 whole entry, the tested form may be a part): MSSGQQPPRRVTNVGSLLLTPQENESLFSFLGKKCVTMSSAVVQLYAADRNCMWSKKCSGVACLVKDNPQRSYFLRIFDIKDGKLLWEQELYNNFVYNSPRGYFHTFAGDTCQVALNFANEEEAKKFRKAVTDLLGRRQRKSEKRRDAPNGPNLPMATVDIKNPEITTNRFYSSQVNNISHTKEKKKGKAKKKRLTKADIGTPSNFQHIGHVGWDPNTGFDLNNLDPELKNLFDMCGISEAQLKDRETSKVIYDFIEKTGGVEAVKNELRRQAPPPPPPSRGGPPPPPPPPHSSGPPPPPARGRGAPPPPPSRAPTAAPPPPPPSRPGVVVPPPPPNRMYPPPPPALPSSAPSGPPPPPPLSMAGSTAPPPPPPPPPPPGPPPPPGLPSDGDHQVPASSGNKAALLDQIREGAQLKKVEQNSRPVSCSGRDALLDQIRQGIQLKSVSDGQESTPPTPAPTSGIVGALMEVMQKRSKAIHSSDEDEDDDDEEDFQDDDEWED
Sequence of EspFu 2RC (identical repeats four and five) (P0DJ88 whole entry, the tested form may be a part): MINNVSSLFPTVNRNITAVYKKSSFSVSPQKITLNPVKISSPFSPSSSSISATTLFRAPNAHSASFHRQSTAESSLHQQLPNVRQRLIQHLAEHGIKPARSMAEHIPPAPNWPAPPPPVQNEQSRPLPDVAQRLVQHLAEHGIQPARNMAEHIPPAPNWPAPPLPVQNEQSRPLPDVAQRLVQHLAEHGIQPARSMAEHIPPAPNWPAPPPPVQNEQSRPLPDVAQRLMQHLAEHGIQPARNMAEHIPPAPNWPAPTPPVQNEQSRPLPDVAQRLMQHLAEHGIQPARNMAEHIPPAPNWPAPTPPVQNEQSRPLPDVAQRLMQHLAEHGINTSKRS
Sequence of EspFu 1R (a single repeat of EspFu, the fourth repeat) (P0DJ88 whole entry, the tested form may be a part): as above
Sequence of glutathione S-transferase (GST) (natural protein) (P08515 2-218): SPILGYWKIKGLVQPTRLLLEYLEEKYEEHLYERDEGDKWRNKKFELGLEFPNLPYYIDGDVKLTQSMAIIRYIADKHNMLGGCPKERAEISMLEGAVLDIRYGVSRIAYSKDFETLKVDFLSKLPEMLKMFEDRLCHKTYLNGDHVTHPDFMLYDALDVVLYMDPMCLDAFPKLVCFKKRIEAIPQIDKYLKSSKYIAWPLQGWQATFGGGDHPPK

Arp2/3 complex, endogenous in HEK293 cells (from UniProt P61158 1-418)
fold increase in precipitated Arp2/3 with rapamycin over no rapamycin [1]: > 3 fold

EspFu 1R (a single repeat of EspFu, the fourth repeat) (from UniProt P0DJ88 1-337) (domain or fragment)
Kd [2]: 35 nM

EspFu 2RC (identical repeats four and five) (from UniProt P0DJ88 1-337) (domain or fragment)
fold tighter affinity than 2R [3]: 3 fold
Kd [2]: 39 nM

glutathione S-transferase (GST) (natural protein)
Kd [4]: < 1 nM
